Where “and” joins values, the source holds several entries; their conditions need not be identical. Equal values may be shown once.

Test [1] has as its target T1, human STAT3, endogenous, in human cell lines (U251, MDA-MB-468, HeLa, MCF-10A, MCF-7, COLO205) (human, UniProt P40763 2-770).
T1 construct: whole, on cells; also called cellular antigens
The test can be described thus: flow cytometry on PFA-fixed, methanol-permeabilised U251 cells, PE anti-human IgG, MFI (FL-2). The protocol:
(§1) Next, the binding of the candidate anti-STAT3 antibodies to cellular targets was tested in cell binding assays using MDA-MB-435 breast cancer cells and U251 cells. The cells were seeded overnight in a 96 well plate, then fixed with PFA and permeabilized with methanol. Cells were incubated with serial dilutions of the anti-STAT3 antibody candidates ST1A5, ST3G12 and ST5G12 for one hour and 30 minutes. Following incubation, the cells were washed and incubated for 30 minutes with phycoerythrin (PE) conjugated anti-human IgG. Fluorescence was measured on an Intellicyte high-throughput flow cytometry analyzer. […] Bevacizumab (Avastin), a monoclonal antibody that inhibits vascular endothelial growth factor A (VEGF-A) was used as a negative control.
On the technique in general: A flow cytometer gives signals particle by particle.

Test [2] deals with T2, recombinant human STAT3 protein (human, UniProt P40763 1-770, limits assumed).
T2 construct: also called recombinant human STAT3 proteins; antigen
T2 sequence (P40763 whole entry): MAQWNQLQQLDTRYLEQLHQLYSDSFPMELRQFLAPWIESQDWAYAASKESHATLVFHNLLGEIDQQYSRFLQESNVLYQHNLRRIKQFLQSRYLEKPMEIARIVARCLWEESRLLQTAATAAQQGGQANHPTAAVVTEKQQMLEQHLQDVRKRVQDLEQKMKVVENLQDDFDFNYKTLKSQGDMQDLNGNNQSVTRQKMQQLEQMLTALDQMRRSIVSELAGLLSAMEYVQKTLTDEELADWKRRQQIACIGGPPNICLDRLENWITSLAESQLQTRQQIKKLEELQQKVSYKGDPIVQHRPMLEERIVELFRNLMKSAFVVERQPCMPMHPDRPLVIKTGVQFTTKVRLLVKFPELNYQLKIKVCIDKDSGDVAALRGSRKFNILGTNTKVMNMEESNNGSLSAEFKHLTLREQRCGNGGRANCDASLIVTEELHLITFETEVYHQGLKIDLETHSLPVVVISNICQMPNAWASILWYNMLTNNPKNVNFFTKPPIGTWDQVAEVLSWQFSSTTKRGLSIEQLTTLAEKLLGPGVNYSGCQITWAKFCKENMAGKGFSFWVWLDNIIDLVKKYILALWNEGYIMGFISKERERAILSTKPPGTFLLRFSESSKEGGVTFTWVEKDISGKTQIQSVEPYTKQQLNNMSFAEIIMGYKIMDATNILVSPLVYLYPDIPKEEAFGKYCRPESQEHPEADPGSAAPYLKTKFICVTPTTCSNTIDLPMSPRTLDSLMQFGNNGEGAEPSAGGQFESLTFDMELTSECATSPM
Kind of test: ELISA in Superblock buffer, OD 450 nm; antigen named neither on the sheet nor in legend paragraph 54, taken as the antibody's antigen STAT3, ng/ml is the unit of the x axis. In general terms: An ELISA detects its analyte on a solid surface through an enzyme-linked reagent.

Test [3] concerns the target T2, recombinant human STAT3 protein. The test can be described thus: ELISA on recombinant human STAT3 protein, absorbance at 450.
The target is the same in test [4]. The test can be described thus: STAT3 binding ELISA, Hu-IgG-Fab detection (title on the sheet), OD 450 nm, ng/ml is the unit of the x axis.
The target of test [5] is T3, recombinant human STAT3-GST (human, UniProt P40763 1-770, limits assumed).
T3 construct: Analyte in the Biacore assay; not shown: GST (glutathione S-transferase) tag
T3 sequence (P40763 whole entry): as above
Kind of test: SPR (Biacore T200), antibody captured on anti-human Fc, STAT3-GST as analyte, 1:1 model. How it is done:
Anti-human Fc antibody (GE, BR-1008-39) was immobilized on a CM5 sensor chip to approximately 1000 RU using standard NHS/EDC coupling methodology. Antibodies (approximately 10 ug/ml) were captured for 60 seconds at a flow rate of 10 ul/min Recombinant human STAT3-GST was serially diluted 2-fold into running buffer (HBS-EP+, starting from […]). All measurements were conducted at a flow rate of 30 ul/min Surfaces were regenerated with 3M MgCl₂ (from human antibody kit) for 60 seconds. A 1:1 (Langmuir) binding model was used to fit the data.
Background: In SPR one partner is held on a chip, and binding of the other changes the refractive index at the surface.

The target in test [6] is T1, human STAT3, endogenous, in human cell …. The test can be described thus: flow cytometry (HTFC) on permeabilised U251 cells, PE anti-human IgG. The protocol:
After 45 minutes at room temperature, cells were washed twice and incubated with phycoerythrin (PE) conjugated-anti-human IgG for 20 minutes at room temperature in the dark. Cells were then washed and analyzed by high throughput flow cytometry (HTFC). The results are shown in FIG. 4 for assessment of antibody binding to U251 cells.

Test [7] has as its target human IgG. Kind of test: ELISA in Superblock buffer, OD 450 nm; partner not named on the sheet, legend paragraph 53 says 'to human IgG', ng/ml is the unit of the x axis.
For test [8], the target named is T4, mouse STAT3, endogenous, in mouse cell lines CT-26 and MC-38 (mouse, UniProt P42227 2-770).
T4 construct: whole, on cells; Intracellular protein
T4 sequence (P42227 2-770): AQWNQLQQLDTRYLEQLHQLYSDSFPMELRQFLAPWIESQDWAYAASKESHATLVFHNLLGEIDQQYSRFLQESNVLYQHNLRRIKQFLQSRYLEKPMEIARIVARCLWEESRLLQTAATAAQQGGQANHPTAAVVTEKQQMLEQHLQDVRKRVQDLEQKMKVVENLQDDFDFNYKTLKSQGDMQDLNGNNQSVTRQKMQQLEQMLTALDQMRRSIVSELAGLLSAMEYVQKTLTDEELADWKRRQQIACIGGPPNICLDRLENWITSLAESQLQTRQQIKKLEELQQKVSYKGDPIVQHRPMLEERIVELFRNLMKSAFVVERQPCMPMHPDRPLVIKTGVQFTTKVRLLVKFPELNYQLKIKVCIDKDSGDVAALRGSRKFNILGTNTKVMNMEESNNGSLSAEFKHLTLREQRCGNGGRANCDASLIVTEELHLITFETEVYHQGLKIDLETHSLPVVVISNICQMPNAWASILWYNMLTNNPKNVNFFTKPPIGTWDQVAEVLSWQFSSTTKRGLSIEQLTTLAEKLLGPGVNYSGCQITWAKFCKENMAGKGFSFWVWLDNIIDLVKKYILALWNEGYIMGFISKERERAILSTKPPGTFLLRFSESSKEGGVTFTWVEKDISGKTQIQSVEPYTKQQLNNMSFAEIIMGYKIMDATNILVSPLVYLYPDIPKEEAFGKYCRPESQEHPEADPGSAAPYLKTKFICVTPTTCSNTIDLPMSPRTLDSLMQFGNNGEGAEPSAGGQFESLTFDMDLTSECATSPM
Kind of test: flow cytometry on fixed, permeabilised mouse CT-26 and MC-38 cells, PE anti-human IgG; antibody concentration not given.

For test [9], the target named is T2, recombinant human STAT3 protein. The test can be described thus: ELISA on recombinant human STAT3 protein, Abs 450.
Test [10] deals with human IgG. Kind of test: ELISA in Superblock buffer, OD 450 nm; partner not named on the sheet, legend paragraph 53 says 'to human IgG'; column taken as the curve ST3G12-PS superblock; unit from the x axis.
The target in test [11] is T2, recombinant human STAT3 protein. The test can be described thus: ELISA in Superblock buffer, OD 450 nm; antigen named neither on the sheet nor in legend paragraph 54, taken as the antibody's antigen STAT3; unit from the x axis.
Test [12] deals with T1, human STAT3, endogenous, in human cell …. The test can be described thus: flow cytometry on PFA-fixed, methanol-permeabilised MDA-MB-468 cells, PE anti-human IgG, MFI (FL-2). How it is done: as §1

T1 sequence (P40763 2-770): as the sequence (P42227 2-770) above, with D759E counted along it

B1: anti-STAT3 antibody ST3G12 (naked / unmodified) (antibody, V domains shown)
VH: QVQLVQSGAEVKKPGASVKVSCKASGYTFTSYYMHWVRQAPGQGLEWMGIINPSGGSTSYAQKFQGRVTMTRDTSTSTVYMELSSLRSEDTAVYYCARSDYVHSFDIWGQGTMVTVSS
VL: QPVLTQPPSASALLGASIKLTCTLSSEHSTYTVEWYQQRPGRSPQYIMNVKSDGSYNKGDGIPDRFMGSSSGADRYLTFSNLQSDDEAEYHCGESHRIDGQVGVVFGGGTKLTVL
notes: Fully human monoclonal antibody, detected with anti-human IgG and captured with anti-human Fc; also called Ab#1; ST3G12-unmodified
Take B1: the “EC50 (read off the curve)” value in [1] is approximately 4 nM; in [3], approximately 0.007 µg/mL; in test [6], approximately 10 nM; in [9], approximately 0.06 µg/mL. For the same molecule, the EC50 in test [2] was 0.0257 µg/mL; in [4] it was 0.155 µg/mL; in [7], 0.122 µg/mL. The Kd in [5] was determined as 5.39 nM. The koff in [5] was 0.000322 s⁻¹. In addition, in test [5], the on-rate (kon) came out at 59700 M⁻¹ s⁻¹. Moreover, in test [8], the binding result is on record as “binds”.

B2: ST3G12-PS antibody conjugate (compound 901) (antibody, V domains shown)
VH: B1 VH
VL: B1 VL
notes: also called PS-ST3G12; Anti-STAT3-PS
Consider B2, for which the “EC50 (read off the curve)” value in test [3] was approximately 0.007 µg/mL; in test [9], ~0.06 µg/mL and ~0.1 µg/mL. For the same molecule, the EC50 in test [4] was determined as 0.153 µg/mL; in [10], 0.186 µg/mL; in test [11], 0.0643 µg/mL. Also, the dissociation constant (Kd) in test [5] stood at 0.222 nM. Besides, the koff in test [5] was 0.00011 s⁻¹. For the same molecule, the kon in [5] worked out at 494000 M⁻¹ s⁻¹.

B3: anti-STAT3 antibody ST1A5 (antibody, V domains shown)
VH: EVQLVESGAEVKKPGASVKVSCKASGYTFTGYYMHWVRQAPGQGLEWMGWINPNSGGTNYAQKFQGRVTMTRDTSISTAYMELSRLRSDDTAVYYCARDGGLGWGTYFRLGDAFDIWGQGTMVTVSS
VL: QSVLTQPPSVSKGLRQTATLTCTGNSNNVGNEGAAWLQQHQGHPPKLLSYRNFNRPSGISERFSASRSGNTASLTITGLQPEDEADYYCSAWDSSLSAWVFGGGTKLTVL
notes: Fully human monoclonal antibody detected with anti-human IgG; also called Ab#2
Take B3: in test [12], the “EC50 (read off the curve)” value was approximately 5 nM.

In general, EC50 (read off the curve) refers to the concentration at which the effect is half-maximal. What is called EC50 is the concentration needed to bring the measured effect to its halfway point. A word on the Kd: it is a measure of binding affinity in units of concentration. One may read the koff as the first-order rate constant of dissociation. A word on the kon: it is the second-order rate constant of association.

The values above are taken from patent publication US20170306048A1 (SORRENTO THERAPEUTICS, published 2017).
